B1: TBX5 (parent)
chain: FHEVGTEMIITKAGRRMFPSYKVK
B2: ZER1 (parent)
chain: FDGPEAWGVCEPQREEVEERMWAA

Variants of: B1
Experiment: protein stability index of a GFP-peptide fusion (GPS, HEK-293T) (PSI 1-6); higher = more stable
Settings: c terminus: a fixed tail appended
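Also: lentivirally expressed fusions sorted by FACS into six bins by GFP to DsRed ratio, PSI derived from sequencing read proportions per bin multiplied by bin number.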

Variant	protein stability index
FHEVGTEMIITKAGRRMKPSYKVK [F18K]	1.94
FHEVGTEMIITKAGRRMCPSYKVK [F18C]	2.61
FHEVGTEMIITKAGRRMYPSYKVK [F18Y]	2.07
FHEVGTEMIITKAGRRMNPSYKVK [F18N]	2.07
FHEVGTEMIITKAGRRMRPSYKVK [F18R]	1.76
FHEVGTEMIITKAGRRMTPSYKVK [F18T]	1.92
FHEVGTEMIITKAGRRMAPSYKVK [F18A]	2.76
FHEVGTEMIITKAGRRMQPSYKVK [F18Q]	2.58
FHEVGTEMIITKAGRRMSPSYKVK [F18S]	2.41
FHEVGTEMIITKAGRRMIPSYKVK [F18I]	2.07
FHEVGTEMIITKAGRRMPPSYKVK [F18P]	2.11
FHEVGTEMIITKAGRRMEPSYKVK [F18E]	2.34
FHEVGTEMIITKAGRRMHPSYKVK [F18H]	3.08
FHEVGTEMIITKAGRRMGPSYKVK [F18G]	2.25
FHEVGTEMIITKAGRRMLPSYKVK [F18L]	2.51
FHEVGTEMIITKAGRRMMPSYKVK [F18M]	2.23
FHEVGTEMIITKAGRRMVPSYKVK [F18V]	2.01
FHEVGTEMIITKAGRRMWPSYKVK [F18W]	1.8
FHEVGTEMIITKAGRRMFPSYKVS [K24S]	1.15
FHEVGTEMIITKAGRRMFPSYKVA [K24A]	1.99
FHEVGTEMIITKAGRRMFPSYKVP [K24P]	1.55
FHEVGTEMIITKAGRRMFPSYKVI [K24I]	1.54
FHEVGTEMIITKAGRRMFPSYKVR [K24R]	1.51
FHEVGTEMIITKAGRRMFPSYKVW [K24W]	1.65
FHEVGTEMIITKAGRRMFPSYKVH [K24H]	1.59
FHEVGTEMIITKAGRRMFPSYKVM [K24M]	2.55

Variant	protein stability index
FHEVGTEMIITKAGRRMFPSYKVV [K24V]	1.65
FHEVGTEMIITKAGRRMFPSYKVD [K24D]	2.2
FHEVGTEMIITKAGRRMFPSYKVQ [K24Q]	1.33
FHEVGTEMIITKAGRRMFPSYKVC [K24C]	2.62
FHEVGTEMIITKAGRRMFPSYKVG [K24G]	2.03
FHEVGTEMIITKAGRRMFPSYKVY [K24Y]	2.08
FHEVGTEMIITKAGRRMFPSYKVL [K24L]	1.99
FHEVGTEMIITKAGRRMFPSYKVN [K24N]	1.08
FHEVGTEMIITKAGRRMFPSYKVT [K24T]	2.41
FHEVGTEMIITKAGRRMFPSYKVF [K24F]	2.83
FHEVGTEMIITKAGRRMFPSYKVE [K24E]	1.89
FHEVGTEMIITKAGRRMFPSYKSK [V23S]	2.27
FHEVGTEMIITKAGRRMFPSYKFK [V23F]	2.23
FHEVGTEMIITKAGRRMFPSYKLK [V23L]	1.41
FHEVGTEMIITKAGRRMFPSYKNK [V23N]	2.26
FHEVGTEMIITKAGRRMFPSYKIK [V23I]	1.97
FHEVGTEMIITKAGRRMFPSYKTK [V23T]	2.14
FHEVGTEMIITKAGRRMFPSYKEK [V23E]	2.5
FHEVGTEMIITKAGRRMFPSYKPK [V23P]	2.8
FHEVGTEMIITKAGRRMFPSYKDK [V23D]	2.52
FHEVGTEMIITKAGRRMFPSYKQK [V23Q]	2.09
FHEVGTEMIITKAGRRMFPSYKGK [V23G]	2.9
FHEVGTEMIITKAGRRMFPSYKKK [V23K]	2.24
FHEVGTEMIITKAGRRMFPSYKHK [V23H]	2.17
FHEVGTEMIITKAGRRMFPSYKYK [V23Y]	1.82
FHEVGTEMIITKAGRRMFPSYKRK [V23R]	2.71

Variant	protein stability index
FHEVGTEMIITKAGRRMFPSYKCK [V23C]	1.84
FHEVGTEMIITKAGRRMFPSYKAK [V23A]	2.35
FHEVGTEMIITKAGRRMFPSYKMK [V23M]	1.78
FHEVGTEMIITKAGRRMFPSYKWK [V23W]	2.2
FHEVGTEMIITKAGRRMFPKYKVK [S20K]	2.18
FHEVGTEMIITKAGRRMFPNYKVK [S20N]	2.06
FHEVGTEMIITKAGRRMFPHYKVK [S20H]	2.31
FHEVGTEMIITKAGRRMFPGYKVK [S20G]	1.93
FHEVGTEMIITKAGRRMFPAYKVK [S20A]	1.89
FHEVGTEMIITKAGRRMFPVYKVK [S20V]	1.97
FHEVGTEMIITKAGRRMFPCYKVK [S20C]	3.1
FHEVGTEMIITKAGRRMFPRYKVK [S20R]	2.61
FHEVGTEMIITKAGRRMFPMYKVK [S20M]	2.67
FHEVGTEMIITKAGRRMFPTYKVK [S20T]	2.69
FHEVGTEMIITKAGRRMFPQYKVK [S20Q]	2.83
FHEVGTEMIITKAGRRMFPWYKVK [S20W]	2.42
FHEVGTEMIITKAGRRMFPLYKVK [S20L]	1.86
FHEVGTEMIITKAGRRMFPEYKVK [S20E]	2.02
FHEVGTEMIITKAGRRMFPPYKVK [S20P]	2.42
FHEVGTEMIITKAGRRMFPIYKVK [S20I]	2.54
FHEVGTEMIITKAGRRMFPDYKVK [S20D]	2.18
FHEVGTEMIITKAGRRMFPYYKVK [S20Y]	2.84
FHEVGTEMIITKAGRRMFPSCKVK [Y21C]	2.21
FHEVGTEMIITKAGRRMFPSVKVK [Y21V]	1.86
FHEVGTEMIITKAGRRMFPSHKVK [Y21H]	3.03
FHEVGTEMIITKAGRRMFPSPKVK [Y21P]	2.13

Variant	protein stability index
FHEVGTEMIITKAGRRMFPSAKVK [Y21A]	2.66
FHEVGTEMIITKAGRRMFPSGKVK [Y21G]	2.51
FHEVGTEMIITKAGRRMFPSRKVK [Y21R]	3.16
FHEVGTEMIITKAGRRMFPSDKVK [Y21D]	2.64
FHEVGTEMIITKAGRRMFPSFKVK [Y21F]	2.83
FHEVGTEMIITKAGRRMFPSWKVK [Y21W]	1.87
FHEVGTEMIITKAGRRMFPSKKVK [Y21K]	2.21
FHEVGTEMIITKAGRRMFPSIKVK [Y21I]	1.48
FHEVGTEMIITKAGRRMFPSSKVK [Y21S]	2.61
FHEVGTEMIITKAGRRMFPSEKVK [Y21E]	2.92
FHEVGTEMIITKAGRRMFPSLKVK [Y21L]	2.15
FHEVGTEMIITKAGRRMFPSNKVK [Y21N]	2.55
FHEVGTEMIITKAGRRMFPSQKVK [Y21Q]	2.7
FHEVGTEMIITKAGRRMFPSMKVK [Y21M]	1.95
FHEVGTEMIITKAGRRMFPSTKVK [Y21T]	2.42
FHEVGTEMIITKAGRRMFPSYPVK [K22P]	2.08
FHEVGTEMIITKAGRRMFPSYAVK [K22A]	1.97
FHEVGTEMIITKAGRRMFPSYHVK [K22H]	1.55
FHEVGTEMIITKAGRRMFPSYWVK [K22W]	1.98
FHEVGTEMIITKAGRRMFPSYFVK [K22F]	1.65
FHEVGTEMIITKAGRRMFPSYTVK [K22T]	1.51
FHEVGTEMIITKAGRRMFPSYRVK [K22R]	2.45
FHEVGTEMIITKAGRRMFPSYLVK [K22L]	2.14
FHEVGTEMIITKAGRRMFPSYEVK [K22E]	1.9
FHEVGTEMIITKAGRRMFPSYMVK [K22M]	2.01
FHEVGTEMIITKAGRRMFPSYIVK [K22I]	2.03

Variant	protein stability index
FHEVGTEMIITKAGRRMFPSYDVK [K22D]	2.34
FHEVGTEMIITKAGRRMFPSYNVK [K22N]	2.03
FHEVGTEMIITKAGRRMFPSYCVK [K22C]	1.86
FHEVGTEMIITKAGRRMFPSYSVK [K22S]	2.18
FHEVGTEMIITKAGRRMFPSYYVK [K22Y]	2.89
FHEVGTEMIITKAGRRMFPSYQVK [K22Q]	1.79
FHEVGTEMIITKAGRRMFPSYGVK [K22G]	2.28
FHEVGTEMIITKAGRRMFPSYVVK [K22V]	1.43
FHEVGTEMIITKAGRRMFNSYKVK [P19N]	1.61
FHEVGTEMIITKAGRRMFLSYKVK [P19L]	1.74
FHEVGTEMIITKAGRRMFTSYKVK [P19T]	2.1
FHEVGTEMIITKAGRRMFASYKVK [P19A]	2
FHEVGTEMIITKAGRRMFRSYKVK [P19R]	2.89
FHEVGTEMIITKAGRRMFGSYKVK [P19G]	2
FHEVGTEMIITKAGRRMFQSYKVK [P19Q]	1.98
FHEVGTEMIITKAGRRMFVSYKVK [P19V]	1.77
FHEVGTEMIITKAGRRMFCSYKVK [P19C]	2.53
FHEVGTEMIITKAGRRMFSSYKVK [P19S]	2.72
FHEVGTEMIITKAGRRMFMSYKVK [P19M]	1.4
FHEVGTEMIITKAGRRMFKSYKVK [P19K]	3.38
FHEVGTEMIITKAGRRMFISYKVK [P19I]	2.23
FHEVGTEMIITKAGRRMFFSYKVK [P19F]	1.79
FHEVGTEMIITKAGRRMFDSYKVK [P19D]	2.2
FHEVGTEMIITKAGRRMFYSYKVK [P19Y]	3.12
FHEVGTEMIITKAGRRMFESYKVK [P19E]	2.19
FHEVGTEMIITKAGRRMFHSYKVK [P19H]	1.09

Variant	protein stability index
FHEVGTEMIITKAGRRMFWSYKVK [P19W]	1.75
FHEVGTEMIITKAGRTMFPSYKVK [R16T]	2.03
FHEVGTEMIITKAGRSMFPSYKVK [R16S]	1.75
FHEVGTEMIITKAGRVMFPSYKVK [R16V]	1.54
FHEVGTEMIITKAGRYMFPSYKVK [R16Y]	1.92
FHEVGTEMIITKAGRRCFPSYKVK [M17C]	2.05
FHEVGTEMIITKAGRRAFPSYKVK [M17A]	2.38
FHEVGTEMIITKAGRRYFPSYKVK [M17Y]	2.44
FHEVGTEMIITKAGRRTFPSYKVK [M17T]	1.98
FHEVGTEMIITKAGRRHFPSYKVK [M17H]	1.71
FHEVGTEMIITKAGRRLFPSYKVK [M17L]	2.27
FHEVGTEMIITKAGRRGFPSYKVK [M17G]	1.67
FHEVGTEMIITKAGRRDFPSYKVK [M17D]	2.28
FHEVGTEMIITKAGRRRFPSYKVK [M17R]	2.57
FHEVGTEMIITKAGRRPFPSYKVK [M17P]	1.84
FHEVGTEMIITKAGRRSFPSYKVK [M17S]	2.68
FHEVGTEMIITKAGRREFPSYKVK [M17E]	2.83
FHEVGTEMIITKAGRRNFPSYKVK [M17N]	1.87
FHEVGTEMIITKAGRRFFPSYKVK [M17F]	2
FHEVGTEMIITKAGRRVFPSYKVK [M17V]	1.63
FHEVGTEMIITKAGRRIFPSYKVK [M17I]	1.98
FHEVGTEMIITKAGRRKFPSYKVK [M17K]	2.11
FHEVGTEMIITKAGRRQFPSYKVK [M17Q]	2.5

Variants of: B2
Experiment: as above
Settings: c terminus: a fixed tail appended

Variant	protein stability index
IDGPEAWGVCEPQREEVEERMWAA [F1I]	4.69
RDGPEAWGVCEPQREEVEERMWAA [F1R]	4.45
ADGPEAWGVCEPQREEVEERMWAA [F1A]	5.03
NDGPEAWGVCEPQREEVEERMWAA [F1N]	4.87
DDGPEAWGVCEPQREEVEERMWAA [F1D]	4.33
GDGPEAWGVCEPQREEVEERMWAA [F1G]	4.72
CDGPEAWGVCEPQREEVEERMWAA [F1C]	4.17
EDGPEAWGVCEPQREEVEERMWAA [F1E]	4.99
KDGPEAWGVCEPQREEVEERMWAA [F1K]	3.97
LDGPEAWGVCEPQREEVEERMWAA [F1L]	3.93
TDGPEAWGVCEPQREEVEERMWAA [F1T]	4.94
PDGPEAWGVCEPQREEVEERMWAA [F1P]	5.04
QDGPEAWGVCEPQREEVEERMWAA [F1Q]	4.88
YDGPEAWGVCEPQREEVEERMWAA [F1Y]	3.15
MDGPEAWGVCEPQREEVEERMWAA [F1M]	3.3
WDGPEAWGVCEPQREEVEERMWAA [F1W]	4.5
SDGPEAWGVCEPQREEVEERMWAA [F1S]	4.77
FDNPEAWGVCEPQREEVEERMWAA [G3N]	2.58

Variant	protein stability index
FDCPEAWGVCEPQREEVEERMWAA [G3C]	3.88
FDMPEAWGVCEPQREEVEERMWAA [G3M]	2.1
FDFPEAWGVCEPQREEVEERMWAA [G3F]	2.06
FDDPEAWGVCEPQREEVEERMWAA [G3D]	2.56
FDEPEAWGVCEPQREEVEERMWAA [G3E]	1.52
FDIPEAWGVCEPQREEVEERMWAA [G3I]	1.78
FDHPEAWGVCEPQREEVEERMWAA [G3H]	1.87
FDPPEAWGVCEPQREEVEERMWAA [G3P]	4.42
FDLPEAWGVCEPQREEVEERMWAA [G3L]	1.62
FKGPEAWGVCEPQREEVEERMWAA [D2K]	3.26
FWGPEAWGVCEPQREEVEERMWAA [D2W]	3.21
FLGPEAWGVCEPQREEVEERMWAA [D2L]	2.62
FFGPEAWGVCEPQREEVEERMWAA [D2F]	1.68
FEGPEAWGVCEPQREEVEERMWAA [D2E]	2.08
FQGPEAWGVCEPQREEVEERMWAA [D2Q]	2.69
FRGPEAWGVCEPQREEVEERMWAA [D2R]	1.8
FIGPEAWGVCEPQREEVEERMWAA [D2I]	5.1

Source: the supplement of paper PMC10567573
